Read-outs that look alike come from different tables or passages of the source.

Series [1] concerns the target T1, His6-ECSIT (mature human mitochondrial ECSIT with N-terminal His tag) (human, UniProt Q9BQ95 49-431).
T1 sequence: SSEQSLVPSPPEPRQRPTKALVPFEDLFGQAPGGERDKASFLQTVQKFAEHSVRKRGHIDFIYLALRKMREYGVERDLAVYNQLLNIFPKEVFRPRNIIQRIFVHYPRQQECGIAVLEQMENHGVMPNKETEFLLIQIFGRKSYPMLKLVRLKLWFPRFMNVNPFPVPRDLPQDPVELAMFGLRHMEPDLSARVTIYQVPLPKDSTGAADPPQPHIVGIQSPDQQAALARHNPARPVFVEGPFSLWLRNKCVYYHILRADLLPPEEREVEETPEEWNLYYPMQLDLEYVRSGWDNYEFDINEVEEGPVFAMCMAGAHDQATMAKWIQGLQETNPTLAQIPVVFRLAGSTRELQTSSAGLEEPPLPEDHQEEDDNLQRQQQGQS
Put plainly: SEC. (In gel filtration, larger molecules generally elute earlier.)

Series [2] has as its target T1, His6-ECSIT (mature human mitochondrial …). Put plainly: SEC. This is another data set of the same source.
The series “SEC-SAXS” deals with the molecule itself. Briefly: SEC-SAXS.

B1: His6-SMT3-NDUFAF1 (SUMO fusion of mature human NDUFAF1) (natural protein)
chain: YPFLGIRFAEYSSSLQKPVASPGKASSQRKTEGDLQGDHQKEVALDITSSEEKPDVSFDKAIRDEAIYHFRLLKDEIVDHWRGPEGHPLHEVLLEQAKVVWQFRGKEDLDKWTVTSDKTIGGRSEVFLKMGKNNQSALLYGTLSSEAPQDGESTRSGYCAMISRIPRGAFERKMSYDWSQFNTLYLRVRGDGRPWMVNIKEDTDFFQRTNQMYSYFMFTRGGPYWQEVKIPFSKFFFSNRGRIRDVQHELPLDKISSIGFTLADKVDGPFFLEIDFIGVFTDPAHTEEFAYENSPELNPRLFK
The term stoichiometry N denotes a count of units in the complex or per binding partner. Consider B1, for which the entries for the “stoichiometry N” value in series [1] and in series [2] were 1 monomer:monomer and 1 NDUFAF1 monomer per ECSIT monomer (2:2), respectively.

B2: ACAD9 (non-tagged wild type) (enzyme)
chain: AFAKELFLGKIKKKEVFPFPEVSQDELNEINQFLGPVEKFFTEEVDSRKIDQEGKIPDETLEKLKSLGLFGLQVPEEYGGLGFSNTMYSRLGEIISMDGSITVTLAAHQAIGLKGIILAGTEEQKAKYLPKLASGEHIAAFCLTEPASGSDAASIRSRATLSEDKKHYILNGSKVWITNGGLANIFTVFAKTEVVDSDGSVKDKITAFIVERDFGGVTNGKPEDKLGIRGSNTCEVHFENTKIPVENILGEVGDGFKVAMNILNSGRFSMGSVVAGLLKRLIEMTAEYACTRKQFNKRLSEFGLIQEKFALMAQKAYVMESMTYLTAGMLDQPGFPDCSIEAAMVKVFSSEAAWQCVSEALQILGGLGYTRDYPYERILRDTRILLIFEGTNEILRMYIALTGLQHAGRILTTRIHELKQAKVSTVMDTVGRRLRDSLGRTVDLGLTGNHGVVHPSLADSANKFEENTYCFGRTVETLLLRFGKTIMEEQLVLKRVANILINLYGMTAVLSRASRSIRIGLRNHDHEVLLANTFCVEAYLQNLFSLSQLDKYAPENLDEQIKKVSQQILEKRAYICAHPLDRTC
Turning to B2, the “stoichiometry N” value in “SEC-SAXS” turned out to be 2.

The values are drawn from publication PMC8497999 (iScience, 2021).
